The results in this text go back to the Immune Epitope Database (IEDB).

The test concerns the target HLA-A*02:01. The test is described as follows: IEDB peptide-MHC binding, purified MHC/competitive/radioactivity; ≥ and ≤ were set here for values at or beyond the usual limits of such assays.
[1] abbreviates: source organism: Vaccinia virus WR.
[2] abbreviates: source organism: Mammarenavirus whitewaterense.
Where [3] appears, read: source organism: Mammarenavirus machupoense.
Setting [4] is: source organism: Mammarenavirus juninense.
[5] abbreviates: source organism: Mammarenavirus brazilense.

The term IC50 denotes the midpoint of a concentration-inhibition curve. With ETYHLIDYET, the IC50 under setting [1] worked out at 3180 nM.

EVGIKSVVV: the concentration for half-maximal inhibition (IC50) under setting [1] came to 123 nM.

Take EVVDMLSTYL: under setting [1], the IC50 is 1780 nM.

Turning to FAAELTIGV, the concentration for half-maximal inhibition (IC50) under setting [1] came to 0.32 nM.

Turning to FAALGGSVNI, the IC50 under setting [1] was 3730 nM.

With FACLMFKHLL, the IC50 under setting [1] is 1140 nM.

For FAVQTIVFI, the IC50 under setting [1] worked out at 96 nM.

Regarding FIADIGIGV, the IC50 under setting [1] was 0.3 nM.

For the sequence FIALWIPDL, under setting [1], the IC50 was found to be 1.7 nM.

Turning to FICWHSSEI, the IC50 under setting [1] was determined as 53 nM.

As to FIDILLFVI, under setting [1], the IC50 worked out at 14 nM.

FIDSNEYEV: under setting [1], the IC50 amounted to 0.98 nM.

For the sequence FIDSYLQKL, the IC50 under setting [1] was found to be 24 nM.

In the case of FIDTVSVYT, under setting [1], the IC50 is 231 nM.

Take FIEHLGEGI: the IC50 under setting [1] was found to be 4820 nM.

FIFTGITLFL: the IC50 under setting [1] was 0.92 nM.

For the sequence FIGYMVKNV, the half-maximal inhibitory concentration (IC50) under setting [1] was 443 nM.

For the sequence FIHGGILYA, under setting [1], the IC50 came to 8.8 nM.

In the case of FIIEVSNCV, the IC50 under setting [1] amounted to 13 nM.

Consider FIILLLAIV, for which the IC50 under setting [1] is 596 nM.

With FIISVISLV, the IC50 under setting [1] stood at 0.91 nM.

As to FIKGFLYHT, the half-maximal inhibitory concentration (IC50) under setting [1] is 1320 nM.

With FIKPPLITL, under setting [1], the IC50 worked out at 373 nM.

Regarding FIKQGFNNLV, the IC50 under setting [1] was determined as 119 nM.

For FILGIIITV, the 50% inhibitory concentration (IC50) under setting [1] came to 0.11 nM.

As for FILHRLHEI, the IC50 under setting [1] worked out at 0.65 nM.

Regarding FILIFNIIV, under setting [1], the 50% inhibitory concentration (IC50) came to 3.2 nM.

As for FILTAILFFM, the half-maximal inhibitory concentration (IC50) under setting [1] is 0.12 nM.

For FINFFNLLA, the IC50 under setting [1] is 726 nM.

Regarding FIRYGDASLM, the IC50 under setting [1] was 2360 nM.

In the case of FIVVATAAV, the IC50 under setting [1] is 7 nM.

As for FIYLLFASM, the IC50 under setting [1] was found to be 173 nM.

Turning to FLAVLSPTI, under setting [1], the concentration for half-maximal inhibition (IC50) is 0.66 nM.

FLCLLMKLSI: the half-maximal inhibitory concentration (IC50) under setting [1] came out at 2.1 nM.

FLDNECHTI: under setting [1], the IC50 came out at 0.78 nM.

On to FLEGALIANI, for which the half-maximal inhibitory concentration (IC50) under setting [1] came out at 30 nM.

For FLFYPSMFTL, the IC50 under setting [1] was 0.23 nM.

With FLHESDPMVI, under setting [1], the IC50 worked out at 1.1 nM.

With FLHNYILYA, under setting [1], the IC50 turned out to be 0.54 nM.

In the case of FLHTTFIDV, the IC50 under setting [1] is 0.46 nM.

With FLICHNLRA, the IC50 under setting [1] stood at 17 nM.

FLIDLAFLI: under setting [1], the concentration for half-maximal inhibition (IC50) worked out at 0.041 nM.

Consider FLIPKGFYA, for which the IC50 under setting [1] is 0.82 nM.

For FLIVRLNQCM, under setting [1], the IC50 amounted to 34 nM.

On to FLIVSLCPT, for which, under setting [1], the concentration for half-maximal inhibition (IC50) amounted to 1.5 nM.

In the case of FLKDVMVEI, the IC50 under setting [1] is 3 nM.

Regarding FLKIKVTAA, the IC50 under setting [1] worked out at 52 nM.

For the sequence FLKMRRIFGV, the 50% inhibitory concentration (IC50) under setting [2] turned out to be 64 nM.

On to FLKYSRSKPA, for which the IC50 under setting [1] worked out at 3540 nM.

As to FLLFLEITYT, the IC50 under setting [1] is 6.9 nM.

As for FLLIRYITT, the IC50 under setting [1] worked out at 46 nM.

Consider FLLLTSIPI, for which, under setting [1], the IC50 was 0.11 nM.

In the case of FLLRGPFEA, under setting [2], the IC50 was 11 nM.

On to FLLRSIIVA, for which the IC50 under setting [1] was 3.1 nM.

Take FLPIIFDAFL: the IC50 under setting [1] turned out to be 0.22 nM.

Regarding FLPKAAFAL, the IC50 under setting [3] is 30 nM.

As for FLQEALNIA, the IC50 under setting [3] was found to be 6.9 nM.

Turning to FLQEALNIAL, under setting [3], the IC50 is 16 nM.

FLRGEAILQI: the IC50 under setting [1] is 85 nM.

Regarding FLRYLLFGI, under setting [1], the IC50 was 2.5 nM.

Consider FLSLMSLSI, for which the IC50 under setting [1] amounted to 3.5 nM.

For the sequence FLSRLVLYA, the IC50 under setting [1] was found to be 0.075 nM.

FLSRVFFCV: the IC50 under setting [1] turned out to be 0.81 nM.

With FLSYISDTV, the IC50 under setting [1] worked out at 0.54 nM.

FLTAALPVKL: under setting [1], the IC50 amounted to 384 nM.

With FLTLLGIGCV, the IC50 under setting [1] worked out at 0.29 nM.

Consider FLTSVINRV, for which the IC50 under setting [1] came to 2.5 nM.

FLVFVKPTT: under setting [1], the IC50 came out at 516 nM.

FLVGVAIILV: the IC50 under setting [1] amounted to 7.6 nM.

FLYNVYPGA: under setting [1], the IC50 came to 1.3 nM.

Take FMASPENVI: under setting [1], the IC50 amounted to 13 nM.

On to FMASPENVIL, for which, under setting [1], the IC50 was determined as 1070 nM.

FMAYTTSHI: the IC50 under setting [1] was 3.2 nM.

For FMFIGSPMYL, the IC50 under setting [1] came out at 0.093 nM.

As to FMIEGLMTSL, the IC50 under setting [1] came to 0.2 nM.

For the sequence FMIITSTKTI, the IC50 under setting [1] amounted to 1480 nM.

As to FMISFDDIAV, the IC50 under setting [4] was determined as 5.4 nM.

Consider FMLPKQDIV, for which the IC50 under setting [1] turned out to be 4.9 nM.

As to FMMVLPGAA, the IC50 under setting [1] was determined as 6.7 nM.

For the sequence FMQRIISLSV, the concentration for half-maximal inhibition (IC50) under setting [1] turned out to be 1.8 nM.

Consider FMYFCEQKL, for which the IC50 under setting [1] came to 1.9 nM.

FMYIESIKV: the IC50 under setting [1] is 1.3 nM.

In the case of FQFFVFLAL, under setting [4], the IC50 was 675 nM.

On to FQLIFFLTL, for which the IC50 under setting [5] stood at 353 nM.

Consider FQLIFFLTLA, for which the IC50 under setting [5] was found to be 229 nM.

Turning to FQQPQFQYL, the IC50 under setting [1] was found to be 48 nM.

As to FQTVSFSMV, the concentration for half-maximal inhibition (IC50) under setting [4] is 180 nM.

In the case of FQYLLPGFVL, under setting [1], the IC50 was determined as 37 nM.

In the case of FQYVSYSNFI, under setting [1], the concentration for half-maximal inhibition (IC50) is 1450 nM.

Turning to FTASLFLHLV, the IC50 under setting [3] amounted to 75 nM.

With FTDASTVASA, the IC50 under setting [1] was found to be 793 nM.

On to FTFSNVCESV, for which, under setting [1], the IC50 came out at 2.4 nM.

FTFTIYTDEV: the IC50 under setting [1] was 352 nM.

For FTGITLFLL, the IC50 under setting [1] turned out to be 130 nM.

Consider FTISMRYQSL, for which the IC50 under setting [1] came out at 4300 nM.

In the case of FTLIDIWFL, under setting [1], the IC50 amounted to 0.49 nM.

For FTLNHVLAL, the IC50 under setting [1] turned out to be 1.5 nM.
